Legend:
Test in all cases: Kinetic constants of MetAP2 with Mn2+ on peptide substrates (chromogenic assay)
Type in all cases: biochemical, human
Conditions in all cases: other: MetAP2 with 100 μM Mn2+; pH 7.4
[1] = substrate: CSCC[C@H](N)C(=O)NCC(=O)N[C@@H](CCCCN)C(=O)N[C@H](C(=O)N[C@@H](CCCCN)C(=O)N[C@H](C(=O)NCC(=O)N[C@H](C(=O)N[C@@H](CC(N)=O)C(=O)NCC(=O)N[C@@H](Cc1ccccc1)C(=O)O)C(C)C)C(C)C)C(C)C
Excerpt: (§1) A coupled-enzyme chromogenic assay was used to measure methionine aminopeptidase activity by monitoring the production of free methionine cleaved from specific peptide substrates containing methionine. […] Free methionine was oxidized with L-amino acid oxidase (AAO, Sigma Catalog No. A-9378) and horseradish peroxidase (HRP, Sigma Catalog No. P-8451). Oxidation by AAO of free methionine generates hydrogen peroxide (H2O2) which then reacts with HRP oxidizing 0-dianisidine (Sigma Catalog No. D-1954) or 10-acetyl-3,7-dihydrophenoxazine (Amplex Red, Molecular Probes). Assays were performed in 96-well microtiter plates. Enzyme preparations were diluted in assay buffer (50 mM HEPES, pH 7.4, 100 mM NaCl), and 10 μl of the enzymes were introduced into each well. A mixture (90 μl) of 0.1 mg/ml L-amino acid oxidase, 0.1 mg/ml of horseradish peroxidase, 0.1 mg/ml ortho-dianisidine, and 0.5 mM peptide substrate was added to each cell. The reactions were carried out at room temperature, and the absorbance at 450 nanometer (A450) was measured every 20 seconds over a period of twenty minutes using an automatic plate reader (Molecular Devices, Calif., USA). The rate in mOD/min, calculated for each well, was used to represent MetAP1 or MetAP2 activity. Under this assay condition, the methionine cleaved from peptide substrate by MetAP1 or MetAP2 was instantaneously oxidized to generate a final A450 readout. It was determined that 1 μM methionine generated a 2.25 mOD increase in the A450 readout.
(§2) MetAP2 using Mn^2+ as cofactor was studied to obtain kinetic constants on several peptide substrates. […] Enzyme kinetics was studied using the chromogenic assay to determine enzymatic activity as described in Example 3. […] These peptides were tested at a final concentration of 20, 40, 80, 160, 320, and 640 μM in the assay buffer (50 mM HEPES, pH 7.4, 100 mM NaCl). […] The initial rate of methionine cleavage was determined by measuring the A450 change as described above. Kinetic constants were calculated using Linewaver-Burk plots.

[2] = substrate: CSCC[C@H](N)C(=O)NCC(=O)N[C@@H](CCCCN)C(=O)N[C@H](C(=O)N[C@@H](CCCCN)C(=O)N[C@H](C(=O)NCC(=O)N[C@H](C(=O)N[C@@H](CC(N)=O)C(=O)NCC(=O)O)C(C)C)C(C)C)C(C)C
Excerpt: as §1, §2

[3] = substrate: CSCC[C@H](N)C(=O)NCC(=O)N[C@@H](CCCCN)C(=O)N[C@H](C(=O)N[C@@H](CCCCN)C(=O)O)C(C)C
Excerpt: as §1, §2

[4] = substrate: CSCC[C@H](N)C(=O)NCC(=O)N[C@@H](CCCCN)C(=O)O
Excerpt: as §1, §2

[5] = substrate: CSCC[C@H](N)C(=O)NCC(=O)N[C@@H](C)C(=O)N[C@@H](CCC(N)=O)C(=O)N[C@@H](Cc1ccccc1)C(=O)N[C@@H](CO)C(=O)N[C@@H](CCCCN)C(=O)N[C@H](C(=O)O)[C@@H](C)O
Excerpt: as §1, §2

[6] = substrate: CSCC[C@H](N)C(=O)NCC(=O)N[C@@H](CCCCN)C(=O)N[C@H](C(=O)N[C@@H](CCCCN)C(=O)N[C@H](C(=O)O)C(C)C)C(C)C
Excerpt: as §1, §2

[7] = substrate: CSCC[C@H](N)C(=O)NCC(=O)N[C@@H](CCCCN)C(=O)N[C@H](C(=O)N[C@@H](CCCCN)C(=O)N[C@H](C(=O)NCC(=O)N[C@H](C(=O)N[C@@H](CC(N)=O)C(=O)O)C(C)C)C(C)C)C(C)C
Excerpt: as §1, §2

[8] = substrate: CSCC[C@H](N)C(=O)NCC(=O)N[C@@H](CCCCN)C(=O)N[C@H](C(=O)O)C(C)C
Excerpt: as §1, §2

[9] = substrate: CSCC[C@H](N)C(=O)NCC(=O)N[C@@H](CO)C(=O)N[C@@H](CO)C(=O)N[C@@H](CCCCN)C(=O)N[C@@H](CO)C(=O)N[C@@H](CCCCN)C(=O)N1CCC[C@H]1C(=O)O
Excerpt: as §1, §2

[10] = substrate: CSCC[C@H](N)C(=O)NCC(=O)N[C@@H](CC(N)=O)C(=O)N[C@@H](C)C(=O)N[C@@H](C)C(=O)N[C@@H](C)C(=O)N[C@@H](C)C(=O)N[C@@H](CCCCN)C(=O)O
Excerpt: as §1, §2

[11] = substrate: CSCC[C@H](N)C(=O)N[C@@H](C)C(=O)N[C@@H](CO)C(=O)O
Excerpt: as §1, §2

[12] = substrate: CSCC[C@H](N)C(=O)NCC(=O)N[C@@H](CC(N)=O)C(=O)N[C@@H](CC(C)C)C(=O)N[C@@H](CCCCN)C(=O)N[C@@H](CO)C(=O)N[C@H](C(=O)N[C@@H](C)C(=O)O)C(C)C
Excerpt: as §1, §2

B1: MetAP2 (Homo sapiens) (protein)
chain: MAGVEEVAASGSHLNGDLDPDDREEGAASTAEEAAKKKRRKKKKSKGPSAAGEQEPDKESGASVDEVARQLERSALEDKERDEDDEDGDGDGDGATGKKKKKKKKKRGPKVQTDPPSVPICDLYPNGVFPKGQECEYPPTQDGRTAAWRTTSEEKKALDQASEEIWNDFREAAEAHRQVRKYVMSWIKPGMTMIEICEKLEDCSRKLIKENGLNAGLAFPTGCSLNNCAAHYTPNAGDTTVLQYDDICKIDFGTHISGRIIDCAFTVTFNPKYDTLLKAVKDATNTGIKCAGIDVRLCDVGEAIQEVMESYEVEIDGKTYQVKPIRNLNGHSIGQYRIHAGKTVPIVKGGEATRMEEGEVYAIETFGSTGKGVVHDDMECSHYMKNFDVGHVPIRLPRTKHLLNVINENFGTLAFCRRWLDRLGESKYLMALKNLCDLGIVDPYPPLCDIKGSYTAQFEHTILLRPTCKEVVSRGDDY
notes: gp67 secretion signal of vector pAcGP67B (N); made in house; host or cells: baculovirus-infected Sf9 insect cells, secreted into medium
Km [1]: 131.3 µM
kcat [1]: 9.43 s⁻¹
kcat/Km [1]: 71700 M⁻¹ s⁻¹
Km [2]: 163.6 µM
kcat [2]: 10.2 s⁻¹
kcat/Km [2]: 61700 M⁻¹ s⁻¹
Km [3]: 188.1 µM
kcat [3]: 10.4 s⁻¹
kcat/Km [3]: 55000 M⁻¹ s⁻¹
Km [4]: 757.6 µM
kcat [4]: 3.32 s⁻¹
kcat/Km [4]: 5000 M⁻¹ s⁻¹
Km [5]: 224.4 µM
kcat [5]: 4.87 s⁻¹
kcat/Km [5]: 21700 M⁻¹ s⁻¹
Km [6]: 149.3 µM
kcat [6]: 8.53 s⁻¹
kcat/Km [6]: 56700 M⁻¹ s⁻¹
Km [7]: 205.0 µM
kcat [7]: 10.2 s⁻¹
kcat/Km [7]: 50000 M⁻¹ s⁻¹
Km [8]: 623.7 µM
kcat [8]: 6.7 s⁻¹
kcat/Km [8]: 10000 M⁻¹ s⁻¹
Km [9]: 233.1 µM
kcat [9]: 3.94 s⁻¹
kcat/Km [9]: 16700 M⁻¹ s⁻¹
Km [10]: 259.9 µM
kcat [10]: 3.78 s⁻¹
kcat/Km [10]: 15000 M⁻¹ s⁻¹
Km [11]: 211.5 µM
kcat [11]: 2.54 s⁻¹
kcat/Km [11]: 12000 M⁻¹ s⁻¹
Km [12]: 208.3 µM
kcat [12]: 4.87 s⁻¹
kcat/Km [12]: 23300 M⁻¹ s⁻¹

From US20040077031A1, “Novel methionine aminopeptidase-2 and uses thereof” (priority 2002, published 2004)
